Numbering of substitutions follows the chain as printed.
T1: DFNB31_1, Q9P202
T1 sequence (Q9P202 135-233, limits assumed, looked up): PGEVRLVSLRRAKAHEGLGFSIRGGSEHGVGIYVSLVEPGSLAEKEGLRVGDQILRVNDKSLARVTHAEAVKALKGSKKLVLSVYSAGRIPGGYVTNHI

T2: FRMPD1, Q5SYB0
T2 sequence (Q5SYB0 52-145, limits assumed, looked up): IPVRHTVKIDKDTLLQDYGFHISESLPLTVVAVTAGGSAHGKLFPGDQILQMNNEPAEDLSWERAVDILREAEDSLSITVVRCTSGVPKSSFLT

T3: LIN7A, O14910
T3 sequence (O14910 103-200, limits assumed, looked up): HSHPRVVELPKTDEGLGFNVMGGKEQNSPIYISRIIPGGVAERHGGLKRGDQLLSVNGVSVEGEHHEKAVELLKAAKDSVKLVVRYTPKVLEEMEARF

T4: LIN7B, Q9HAP6
T4 sequence (Q9HAP6 88-185, limits assumed, looked up): T3 sequence (O14910 103-200, limits assumed, looked up) with S2A, V20I, I35V, E42D, H65Q, K77Q, D78G, K89R

T5: LNX2_2, Q8N448
T5 sequence (Q8N448 334-432, limits assumed, looked up): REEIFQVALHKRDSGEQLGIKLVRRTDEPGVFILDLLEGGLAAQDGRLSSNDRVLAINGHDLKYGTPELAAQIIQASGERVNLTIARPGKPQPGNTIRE

T6: MPDZ_10, O75970
T6 sequence (O75970 1624-1722, limits assumed, looked up): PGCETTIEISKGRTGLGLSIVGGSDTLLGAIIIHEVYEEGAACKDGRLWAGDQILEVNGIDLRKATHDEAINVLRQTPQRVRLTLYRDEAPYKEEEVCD

T7: NHERF3_4, Q5T2W1
T7 sequence (Q5T2W1 373-468, limits assumed, looked up): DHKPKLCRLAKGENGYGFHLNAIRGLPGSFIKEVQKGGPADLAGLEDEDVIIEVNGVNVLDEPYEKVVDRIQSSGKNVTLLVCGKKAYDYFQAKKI

T8: PDZD7_3, Q9H5P4
T8 sequence (Q9H5P4 857-944, limits assumed, looked up): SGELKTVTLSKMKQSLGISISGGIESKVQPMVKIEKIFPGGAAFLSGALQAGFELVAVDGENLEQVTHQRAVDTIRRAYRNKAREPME

T9: PDZRN3_1, Q9UPQ7
T9 sequence (Q9UPQ7 244-349, limits assumed, looked up): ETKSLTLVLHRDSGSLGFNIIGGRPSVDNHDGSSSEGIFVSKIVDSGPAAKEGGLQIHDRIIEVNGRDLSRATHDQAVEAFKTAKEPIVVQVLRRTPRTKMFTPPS

T10: RAPGEF6, Q8TEU7
T10 sequence (Q8TEU7 525-625, limits assumed, looked up): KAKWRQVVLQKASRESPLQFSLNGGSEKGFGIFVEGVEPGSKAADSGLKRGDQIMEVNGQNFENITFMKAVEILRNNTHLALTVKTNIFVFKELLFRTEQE

T11: SIPA1L2, Q9P2F8
T11 sequence (Q9P2F8 945-1036, limits assumed, looked up): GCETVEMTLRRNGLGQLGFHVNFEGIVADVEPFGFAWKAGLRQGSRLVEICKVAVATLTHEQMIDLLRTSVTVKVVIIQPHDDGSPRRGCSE

T12: SYNJ2BP, P57105
T12 sequence (P57105 8-110, limits assumed, looked up): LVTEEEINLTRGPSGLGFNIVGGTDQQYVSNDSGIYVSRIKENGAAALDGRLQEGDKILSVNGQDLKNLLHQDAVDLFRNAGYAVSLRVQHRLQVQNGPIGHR

T13: TIAM2, Q8IVF5
T13 sequence (Q8IVF5 885-986, limits assumed, looked up): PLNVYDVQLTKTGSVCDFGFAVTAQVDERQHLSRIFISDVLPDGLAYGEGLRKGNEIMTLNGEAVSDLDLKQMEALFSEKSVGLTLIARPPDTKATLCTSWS


Target: T1, DFNB31_1, Q9P202
Assay: holdup assay
Parameters: key: below the threshold = too weak to quantify, mostly under pKd 3.1 to 4
Conditions: plain residues with an end cap or a label only (N-terminal biotin on a linker: ado-ado)

Binder	pKd
PELESKESVL [SLC1A4, P43007]	3.6
PLDSQQHTEV [FAT1, Q14517]	3.85

Target: DLG1_2, Q12959
Sequence (Q12959 314-412): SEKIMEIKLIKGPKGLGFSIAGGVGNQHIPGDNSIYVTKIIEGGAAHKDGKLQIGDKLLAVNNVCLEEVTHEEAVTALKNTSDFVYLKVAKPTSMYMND
Assay: holdup assay
Parameters: key: below the threshold = too weak to quantify, mostly under pKd 3.1 to 4
Conditions: plain residues with an end cap or a label only (N-terminal biotin on a linker: ado-ado)

Binder	pKd
PELESKESVL [SLC1A4, P43007]	4.04
PLDSQQHTEV [FAT1, Q14517]	4.99

Target: DLG4_2, P78352
Sequence (P78352 155-259): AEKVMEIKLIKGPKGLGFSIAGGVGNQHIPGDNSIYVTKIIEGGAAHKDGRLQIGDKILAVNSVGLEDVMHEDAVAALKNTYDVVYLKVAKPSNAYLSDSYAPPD
Assay: holdup assay
Parameters: key: below the threshold = too weak to quantify, mostly under pKd 3.1 to 4
Conditions: plain residues with an end cap or a label only (N-terminal biotin on a linker: ado-ado)

Binder	pKd
PELESKESVL [SLC1A4, P43007]	3.91
PLDSQQHTEV [FAT1, Q14517]	4.8

Target: T2, FRMPD1, Q5SYB0
Assay: holdup assay
Parameters: key: below the threshold = too weak to quantify, mostly under pKd 3.1 to 4
Conditions: plain residues with an end cap or a label only (N-terminal biotin on a linker: ado-ado)

Binder	pKd
PELESKESVL [SLC1A4, P43007]	below the threshold
PLDSQQHTEV [FAT1, Q14517]	below the threshold

Target: FRMPD2_2, Q68DX3
Sequence (Q68DX3 944-1038): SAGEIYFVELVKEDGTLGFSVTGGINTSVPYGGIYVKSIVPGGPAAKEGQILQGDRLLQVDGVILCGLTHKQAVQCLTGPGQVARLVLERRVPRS
Assay: holdup assay
Parameters: key: below the threshold = too weak to quantify, mostly under pKd 3.1 to 4
Conditions: plain residues with an end cap or a label only (N-terminal biotin on a linker: ado-ado)

Binder	pKd
PELESKESVL [SLC1A4, P43007]	below the threshold
PLDSQQHTEV [FAT1, Q14517]	3.73

Target: FRMPD3, Q5JV73
Sequence (Q5JV73 12-100): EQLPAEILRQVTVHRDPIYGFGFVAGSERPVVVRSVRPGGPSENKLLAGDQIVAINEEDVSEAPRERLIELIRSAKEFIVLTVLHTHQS
Assay: holdup assay
Parameters: key: below the threshold = too weak to quantify, mostly under pKd 3.1 to 4
Conditions: plain residues with an end cap or a label only (N-terminal biotin on a linker: ado-ado)

Binder	pKd
PELESKESVL [SLC1A4, P43007]	below the threshold
PLDSQQHTEV [FAT1, Q14517]	below the threshold

Target: HTRA1, Q92743
Sequence (Q92743 360-477): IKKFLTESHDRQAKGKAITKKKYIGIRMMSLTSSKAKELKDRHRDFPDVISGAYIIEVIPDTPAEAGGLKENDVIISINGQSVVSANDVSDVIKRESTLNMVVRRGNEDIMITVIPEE
Assay: holdup assay
Parameters: key: below the threshold = too weak to quantify, mostly under pKd 3.1 to 4
Conditions: plain residues with an end cap or a label only (N-terminal biotin on a linker: ado-ado)

Binder	pKd
PELESKESVL [SLC1A4, P43007]	4.41
PLDSQQHTEV [FAT1, Q14517]	4

Target: Inadl_3, Q8NI35
Sequence (Q8NI35 359-469): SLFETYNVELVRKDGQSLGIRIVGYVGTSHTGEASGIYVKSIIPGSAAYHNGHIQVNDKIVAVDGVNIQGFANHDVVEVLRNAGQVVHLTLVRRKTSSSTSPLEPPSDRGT
Assay: holdup assay
Parameters: key: below the threshold = too weak to quantify, mostly under pKd 3.1 to 4
Conditions: plain residues with an end cap or a label only (N-terminal biotin on a linker: ado-ado)

Binder	pKd
PELESKESVL [SLC1A4, P43007]	below the threshold
PLDSQQHTEV [FAT1, Q14517]	below the threshold

Target: T3, LIN7A, O14910
Assay: holdup assay
Parameters: key: below the threshold = too weak to quantify, mostly under pKd 3.1 to 4
Conditions: plain residues with an end cap or a label only (N-terminal biotin on a linker: ado-ado)

Binder	pKd
PELESKESVL [SLC1A4, P43007]	below the threshold
PLDSQQHTEV [FAT1, Q14517]	below the threshold

Target: T4, LIN7B, Q9HAP6
Assay: holdup assay
Parameters: key: below the threshold = too weak to quantify, mostly under pKd 3.1 to 4
Conditions: plain residues with an end cap or a label only (N-terminal biotin on a linker: ado-ado)

Binder	pKd
PELESKESVL [SLC1A4, P43007]	below the threshold
PLDSQQHTEV [FAT1, Q14517]	below the threshold

Target: LNX1_2, Q8TBB1
Sequence (Q8TBB1 371-470): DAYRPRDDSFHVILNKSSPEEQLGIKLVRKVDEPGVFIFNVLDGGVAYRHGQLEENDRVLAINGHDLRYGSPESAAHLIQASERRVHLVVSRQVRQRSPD
Assay: holdup assay
Parameters: key: below the threshold = too weak to quantify, mostly under pKd 3.1 to 4
Conditions: plain residues with an end cap or a label only (N-terminal biotin on a linker: ado-ado)

Binder	pKd
PELESKESVL [SLC1A4, P43007]	below the threshold
PLDSQQHTEV [FAT1, Q14517]	below the threshold

Target: T5, LNX2_2, Q8N448
Assay: holdup assay
Parameters: key: below the threshold = too weak to quantify, mostly under pKd 3.1 to 4
Conditions: plain residues with an end cap or a label only (N-terminal biotin on a linker: ado-ado)

Binder	pKd
PELESKESVL [SLC1A4, P43007]	below the threshold
PLDSQQHTEV [FAT1, Q14517]	4.35

Target: MAST2, Q6P0Q8
Sequence (Q6P0Q8 1099-1202): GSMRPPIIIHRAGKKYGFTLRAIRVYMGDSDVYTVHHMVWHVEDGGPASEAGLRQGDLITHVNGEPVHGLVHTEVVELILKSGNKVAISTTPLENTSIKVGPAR
Assay: holdup assay
Parameters: key: below the threshold = too weak to quantify, mostly under pKd 3.1 to 4
Conditions: plain residues with an end cap or a label only (N-terminal biotin on a linker: ado-ado)

Binder	pKd
PELESKESVL [SLC1A4, P43007]	5.21
PLDSQQHTEV [FAT1, Q14517]	5.21

Target: T6, MPDZ_10, O75970
Assay: holdup assay
Parameters: key: below the threshold = too weak to quantify, mostly under pKd 3.1 to 4
Conditions: plain residues with an end cap or a label only (N-terminal biotin on a linker: ado-ado)

Binder	pKd
PELESKESVL [SLC1A4, P43007]	below the threshold
PLDSQQHTEV [FAT1, Q14517]	below the threshold

Target: T7, NHERF3_4, Q5T2W1
Assay: holdup assay
Parameters: key: below the threshold = too weak to quantify, mostly under pKd 3.1 to 4
Conditions: plain residues with an end cap or a label only (N-terminal biotin on a linker: ado-ado)

Binder	pKd
PELESKESVL [SLC1A4, P43007]	below the threshold
PLDSQQHTEV [FAT1, Q14517]	below the threshold

Target: T8, PDZD7_3, Q9H5P4
Assay: holdup assay
Parameters: key: below the threshold = too weak to quantify, mostly under pKd 3.1 to 4
Conditions: plain residues with an end cap or a label only (N-terminal biotin on a linker: ado-ado)

Binder	pKd
PELESKESVL [SLC1A4, P43007]	4.8
PLDSQQHTEV [FAT1, Q14517]	4.31

Target: T9, PDZRN3_1, Q9UPQ7
Assay: holdup assay
Parameters: key: below the threshold = too weak to quantify, mostly under pKd 3.1 to 4
Conditions: plain residues with an end cap or a label only (N-terminal biotin on a linker: ado-ado)

Binder	pKd
PELESKESVL [SLC1A4, P43007]	4.46
PLDSQQHTEV [FAT1, Q14517]	below the threshold

Target: PTPN3, P26045
Sequence (P26045 505-587): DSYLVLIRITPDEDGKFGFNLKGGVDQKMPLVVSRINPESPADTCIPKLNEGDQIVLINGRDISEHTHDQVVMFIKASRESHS
Assay: holdup assay
Parameters: key: below the threshold = too weak to quantify, mostly under pKd 3.1 to 4
Conditions: plain residues with an end cap or a label only (N-terminal biotin on a linker: ado-ado)

Binder	pKd
PELESKESVL [SLC1A4, P43007]	5.05
PLDSQQHTEV [FAT1, Q14517]	4.5

Target: T10, RAPGEF6, Q8TEU7
Assay: holdup assay
Parameters: key: below the threshold = too weak to quantify, mostly under pKd 3.1 to 4
Conditions: plain residues with an end cap or a label only (N-terminal biotin on a linker: ado-ado)

Binder	pKd
PELESKESVL [SLC1A4, P43007]	below the threshold
PLDSQQHTEV [FAT1, Q14517]	below the threshold

Target: SCRIB_2, Q14160
Sequence (Q14160 857-960): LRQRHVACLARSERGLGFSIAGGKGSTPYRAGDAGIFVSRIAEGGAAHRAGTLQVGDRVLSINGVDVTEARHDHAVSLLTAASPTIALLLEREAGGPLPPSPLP
Assay: holdup assay
Parameters: key: below the threshold = too weak to quantify, mostly under pKd 3.1 to 4
Conditions: plain residues with an end cap or a label only (N-terminal biotin on a linker: ado-ado)

Binder	pKd
PELESKESVL [SLC1A4, P43007]	below the threshold
PLDSQQHTEV [FAT1, Q14517]	4.21

Target: T11, SIPA1L2, Q9P2F8
Assay: holdup assay
Parameters: key: below the threshold = too weak to quantify, mostly under pKd 3.1 to 4
Conditions: plain residues with an end cap or a label only (N-terminal biotin on a linker: ado-ado)

Binder	pKd
PELESKESVL [SLC1A4, P43007]	below the threshold
PLDSQQHTEV [FAT1, Q14517]	below the threshold

Target: SNX27, Q96L92
Assay: holdup assay
Parameters: key: below the threshold = too weak to quantify, mostly under pKd 3.1 to 4
Conditions: plain residues with an end cap or a label only (N-terminal biotin on a linker: ado-ado)

Binder	pKd
PELESKESVL [SLC1A4, P43007]	5.43
PLDSQQHTEV [FAT1, Q14517]	4.7

Target: T12, SYNJ2BP, P57105
Assay: holdup assay
Parameters: key: below the threshold = too weak to quantify, mostly under pKd 3.1 to 4
Conditions: plain residues with an end cap or a label only (N-terminal biotin on a linker: ado-ado)

Binder	pKd
PELESKESVL [SLC1A4, P43007]	4.34
PLDSQQHTEV [FAT1, Q14517]	4.62

Target: T13, TIAM2, Q8IVF5
Assay: holdup assay
Parameters: key: below the threshold = too weak to quantify, mostly under pKd 3.1 to 4
Conditions: plain residues with an end cap or a label only (N-terminal biotin on a linker: ado-ado)

Binder	pKd
PELESKESVL [SLC1A4, P43007]	below the threshold
PLDSQQHTEV [FAT1, Q14517]	below the threshold

— paper PMC9482650, “Quantitative fragmentomics allow affinity mapping of interactomes” (Nature Communications, 2022)
